The text below walks through data of US12492490 (University of California, dated 2025).

This experiment deals with T1, human ephrin type-A receptor 2 (EphA2) (human, UniProt P29317 24-976).
T1 construct: whole, on cells; also called NP_004422
Briefly: not described.

T1 sequence (P29317 24-976): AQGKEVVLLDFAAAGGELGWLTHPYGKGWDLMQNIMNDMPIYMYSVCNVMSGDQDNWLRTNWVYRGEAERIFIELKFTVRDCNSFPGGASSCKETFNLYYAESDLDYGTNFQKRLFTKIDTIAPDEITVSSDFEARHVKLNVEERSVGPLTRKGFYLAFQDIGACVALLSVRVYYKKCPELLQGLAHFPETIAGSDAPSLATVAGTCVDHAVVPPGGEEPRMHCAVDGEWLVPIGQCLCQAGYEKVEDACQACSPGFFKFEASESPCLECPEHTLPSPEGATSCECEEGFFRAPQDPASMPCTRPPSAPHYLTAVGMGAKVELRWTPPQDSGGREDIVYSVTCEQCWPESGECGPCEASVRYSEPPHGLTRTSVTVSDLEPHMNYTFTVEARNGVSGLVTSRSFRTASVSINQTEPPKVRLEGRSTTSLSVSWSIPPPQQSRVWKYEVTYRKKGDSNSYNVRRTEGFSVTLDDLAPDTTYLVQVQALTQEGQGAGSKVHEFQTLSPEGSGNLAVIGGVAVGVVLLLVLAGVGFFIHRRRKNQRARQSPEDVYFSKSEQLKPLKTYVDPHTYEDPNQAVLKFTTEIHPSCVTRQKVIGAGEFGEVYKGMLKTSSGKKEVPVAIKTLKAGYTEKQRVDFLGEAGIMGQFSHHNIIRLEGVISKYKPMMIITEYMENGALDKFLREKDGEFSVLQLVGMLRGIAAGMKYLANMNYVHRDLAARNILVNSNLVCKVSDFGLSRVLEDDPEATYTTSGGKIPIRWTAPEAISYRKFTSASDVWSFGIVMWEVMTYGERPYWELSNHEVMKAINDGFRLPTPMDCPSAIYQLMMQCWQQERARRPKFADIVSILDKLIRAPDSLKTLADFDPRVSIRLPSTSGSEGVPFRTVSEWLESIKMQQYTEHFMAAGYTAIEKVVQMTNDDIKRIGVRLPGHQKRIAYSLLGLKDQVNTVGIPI

B1: HCA-M1 (antibody, V domains shown)
VH: QVQLVESGGGVVQPGRSLRLSCAASGFTFSSYAMHWVRQAPGKGLEWVAVISYDGSNKYYADSVKGRFTISRDNSKNTLYLQMNSLRAEDTAVYYCARAPAYSYGPFDYWGQGTLVTVSS
VL: SSELTQDPAVSVALGQTVRITCQGDSLRSYYASWYQQKPGQAPVLVIYGKNNRPSGIPDRFSGSSSGNTASLTITGAQAEDEADYYCHSRDSSGTHLRVFGGGTKVTVL
notes: also called IgG HCA-M1
Consider B1, for which the binding result was “no binding”.

B2: HCA-S1 (antibody, V domains shown)
VH: QVQLQESGGGLVQPGGSLRLSCAASGFTFSSYAMHWVRQAPGKGLEWVAVISYDGSNKYYADSVKGRFTISRDNSKNTLYLQMNSLRAEDTAVYYCARFSSGWYYFDYWGQGTLVTVSS
VL: DIQMTQSPSFLSASVGDRITITCRASHDISSYFAWYQQKPGKAPKPLIYAASTLQSGVPSRFSGSGSGTEFTLTISSLQPEDFATYYCQQLGSYPLTFGGGTKLEIK
notes: also called IgG HCA-S1
With B2, the binding result is “no binding”.
